The subject of this series is BsSSB (6xHis-tagged, as purified) (Bacillus subtilis). As to the kind of experiment: EMSA. The settings on record: 100 mM Tris-HCl pH 7.5, 10 min at 37 °C, 12.5% native PAGE.

In the case of 50-base random sequence ssDNA, the binding signal (% probe shifted) stood at 50.
